Experimental data: publication PMC10450444

Experiments:
[1] = molecular target: full-length VAMP2 (mouse His6-SUMO-VAMP2, residues 1-116) (mouse) (UniProt P63044)
Syntaxin1 (rat) = Syntaxin1 (rat) (UniProt P32851)
Syntaxin1 (rat), sequence (P32851 whole entry): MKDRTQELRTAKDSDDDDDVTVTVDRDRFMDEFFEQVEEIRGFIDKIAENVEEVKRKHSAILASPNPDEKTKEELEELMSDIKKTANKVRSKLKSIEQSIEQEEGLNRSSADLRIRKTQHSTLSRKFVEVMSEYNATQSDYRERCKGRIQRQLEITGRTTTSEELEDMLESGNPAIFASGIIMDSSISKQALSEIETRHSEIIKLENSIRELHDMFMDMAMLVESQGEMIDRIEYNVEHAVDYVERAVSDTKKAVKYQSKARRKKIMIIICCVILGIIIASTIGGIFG

full-length VAMP2 (mouse His6-SUMO-VAMP2, residues 1-116) (mouse), sequence (P63044 whole entry, the tested form may be a part): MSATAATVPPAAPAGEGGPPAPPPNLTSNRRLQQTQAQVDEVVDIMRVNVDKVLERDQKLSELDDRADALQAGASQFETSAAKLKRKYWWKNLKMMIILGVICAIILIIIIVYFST

Substance	single-vesicle fusion assay with 500 nM DHG: fraction of immobile clamped vesicles that fused upon 100 µM Ca2+ (wild type ~90%) [1]	single-vesicle fusion assay with 500 nM DHG: fraction of immobile clamped vesicles that fused upon 100 µM Ca2+ (wild type ~90%) (Syntaxin1 (rat))
Munc13 D1358K (from UniProt Q62768 529-1407; Q62768 1453-1735) (domain or fragment)	20%	–
Munc13 N1128A/F1131A (from UniProt Q62768 529-1407; Q62768 1453-1735) (domain or fragment)	–	20%
